Data on ten molecules can be found in PMC3641136.

The labels stand for the following.
B1: neuronal glycine transporter 2 (GlyT2), wild type (natural protein)
chain: MDCSAPKEMNKPPTNILEATVPGHRDSPRAPRTSPEQDLPAAAPAAAVQPPRVPRSASTGAQTFQSADARACEAQRPGVGFCKLSSPQAQATSAALRDLSEGHSAQANPPSGAAGAGNALHCKIPALRGPEEDENVSVGKGTLEHNNTPAVGWVNMSQSTVVLGTDGIASVLPGSVATTTIPEDEQGDENKARGNWSSKLDFILSMVGYAVGLGNVWRFPYLAFQNGGGAFLIPYLMMLALAGLPIFFLEVSLGQFASQGPVSVWKAIPALQGCGIAMLIISVLIAIYYNVIICYTLFYLFASFVSVLPWGSCNNPWNTPECKDKTKLLLDSCVIGDHPKIQIKNSTFCMTAYPNLTMVNFTSQANKTFVSGSEEYFKYFVLKISAGIEYPGEIRWPLAFCLFLAWVIVYASLAKGIKTSGKVVYFTATFPYVVLVILLIRGVTLPGAGAGIWYFITPKWEKLTDATVWKDAATQIFFSLSAAWGGLITLSSYNKFHNNCYRDTLIVTCTNSATSIFAGFVIFSVIGFMANERKVNIENVADQGPGIAFVVYPEALTRLPLSPFWAIIFFLMLLTLGLDTMFATIETIVTSISDEFPKYLRTHKPVFTLGCCICFFIMGFPMITQGGIYMFQLVDTYAASYALVIIAIFELVGISYVYGLQRFCEDIEMMIGFQPNIFWKVCWAFVTPTILTFILCFSFYQWEPMTYGSYRYPNWSMVLGWLMLACSVIWIPIMFVIKMYLAPGRFIERLKLVCSPQPDWGPFLAQHRGERYKNMIDPLGTSSLGLKLPVKDLELGTQC
modifications: N-glycans on asparagines 345, 355, 360 and 366; the CNX-bound form is the 75 kDa under-glycosylated, EndoH-sensitive precursor

The first assay has as its target calnexin (CNX), endogenous in COS7 cells. The experiment in a line: sequential co-immunoprecipitation (CNX then GlyT2 antibodies), densitometry of fluorograms. The note with it: 15 min [35S]methionine/cysteine pulse, 30 min chase, n = 3, parent: est. 100, read off a plot.
Consider “neuronal glycine transporter 2 (GlyT2), wild type (from UniProt P58295) N23”, for which the percent of parent was 62 % of wtGlyT2.
The same measure, in the same setting: with “neuronal glycine transporter 2 (GlyT2), wild type (from UniProt P58295) N3” the figure was 72 % of wtGlyT2.
The same measure, in the same setting: the same measure for “neuronal glycine transporter 2 (GlyT2), wild type (from UniProt P58295) N234”: 48 % of wtGlyT2; for “neuronal glycine transporter 2 (GlyT2), wild type (from UniProt P58295) N345D; N355D; N360D; N366D”: 74 % of wtGlyT2; for “neuronal glycine transporter 2 (GlyT2), wild type (from UniProt P58295) N13”: 85 % of wtGlyT2.
The same measure, in the same setting: with “neuronal glycine transporter 2 (GlyT2), wild type (from UniProt P58295) N2” the figure was 62 % of wtGlyT2.
Turning to “neuronal glycine transporter 2 (GlyT2), wild type (from UniProt P58295) N123”, the percent of parent is 35 % of wtGlyT2.
On the same count and under the same terms, the same measure for “neuronal glycine transporter 2 (GlyT2), wild type (from UniProt P58295) N366D”: 51 % of wtGlyT2; for “neuronal glycine transporter 2 (GlyT2), wild type (from UniProt P58295) N1”: 69 % of wtGlyT2.

The target in the next assay is calnexin (CNX), endogenous in COS7 cells (African green monkey (endogenous in COS7)). The experiment in a line: co-IP; COS7 cells pulse-labeled 15 min with [35S]methionine/cysteine and chased; sequential immunoprecipitation with anti-CNX, then anti-GlyT2 antibodies (1% CHAPS); SDS-PAGE, fluorography, densitometry; also after treatment of cells with tunicamycin, castanospermine, deoxynojirimycin, deoxymannojirimycin, kifunensin, or at 45°C.
Details: not given
As to B1, the half-life of the complex (pulse-chase) came out at 1 h.
